Experimental findings from the supplement of paper PMC9112550, “Optimization of the antimicrobial peptide Bac7 by deep mutational scanning” (BMC Biology, 2022) are described below.

For this data set, the system named is Escherichia coli TOP10. Put plainly: shrunken log2 fold change of peptide-encoding DNA abundance (4.5 h post-induction vs induction); higher = less antimicrobial activity (less host growth inhibition). To be noted: time post-induction: 4.5 h; library: site-saturation at positions 5, 18, 19, 20.
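Note: peptides expressed intracellularly from a pBAD plasmid library in pooled LB shake-flask culture, induced with 0.3% L-arabinose, DNA abundance read by NGS, three biological replicates, DESeq2 with apeglm shrinkage.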

Turning to RRIRVRPPRLPRPRPRPMRRPRP, the “shrunken log2 fold change” value worked out at 0.392.

Take RRIRDRPPRLPRPRPRPNQHPRP: the “shrunken log2 fold change” value is -0.283.

Consider RRIRIRPPRLPRPRPRPPGQPRP, for which the “shrunken log2 fold change” value is -0.125.

As to RRIRWRPPRLPRPRPRPLCEPRP, the “shrunken log2 fold change” value was 0.337.

Consider RRIRIRPPRLPRPRPRPVCIPRP, for which the “shrunken log2 fold change” value is -0.527.

Consider RRIRDRPPRLPRPRPRPPGLPRP, for which the “shrunken log2 fold change” value was -0.317.

Take RRIRDRPPRLPRPRPRPHYFPRP: the “shrunken log2 fold change” value is -0.119.

For RRIRHRPPRLPRPRPRPTNGPRP, the “shrunken log2 fold change” value was -0.154.

For the sequence RRIRGRPPRLPRPRPRPTQVPRP, the “shrunken log2 fold change” value came to 0.353.

For the sequence RRIRIRPPRLPRPRPRPVADPRP, the “shrunken log2 fold change” value was 0.0861.

Take RRIRGRPPRLPRPRPRPDVSPRP: the “shrunken log2 fold change” value came out at 0.163.

For the sequence RRIRPRPPRLPRPRPRPDFDPRP, the “shrunken log2 fold change” value is -0.03.

With RRIRGRPPRLPRPRPRPKFPPRP, the “shrunken log2 fold change” value amounted to 0.251.

For RRIRERPPRLPRPRPRPNPHPRP, the “shrunken log2 fold change” value is -0.234.

In the case of RRIRWRPPRLPRPRPRPGCIPRP, the “shrunken log2 fold change” value is 0.293.

Turning to RRIRGRPPRLPRPRPRPCQLPRP, the “shrunken log2 fold change” value was -0.327.

In the case of RRIRVRPPRLPRPRPRPPDKPRP, the “shrunken log2 fold change” value is 0.265.

Regarding RRIRMRPPRLPRPRPRPEGLPRP, the “shrunken log2 fold change” value came out at 0.0151.

For the sequence RRIRRRPPRLPRPRPRPACSPRP, the “shrunken log2 fold change” value came out at 0.377.

For the sequence RRIRKRPPRLPRPRPRPKFTPRP, the “shrunken log2 fold change” value was 0.355.

On to RRIRVRPPRLPRPRPRPKKTPRP, for which the “shrunken log2 fold change” value is -0.0604.

In the case of RRIRFRPPRLPRPRPRPESHPRP, the “shrunken log2 fold change” value is -0.154.

On to RRIRSRPPRLPRPRPRPFKVPRP, for which the “shrunken log2 fold change” value is -0.0212.

Turning to RRIRIRPPRLPRPRPRPPEDPRP, the “shrunken log2 fold change” value was 0.324.

With RRIRNRPPRLPRPRPRPSVHPRP, the “shrunken log2 fold change” value was -0.311.

As to RRIRSRPPRLPRPRPRPEQCPRP, the “shrunken log2 fold change” value was -0.00373.

In the case of RRIRIRPPRLPRPRPRPKFMPRP, the “shrunken log2 fold change” value is -0.321.

In the case of RRIRGRPPRLPRPRPRPKELPRP, the “shrunken log2 fold change” value came to 0.247.

As for RRIRKRPPRLPRPRPRPCGGPRP, the “shrunken log2 fold change” value turned out to be 0.225.

For the sequence RRIRIRPPRLPRPRPRPRWVPRP, the “shrunken log2 fold change” value was 0.171.

As to RRIRDRPPRLPRPRPRPGMEPRP, the “shrunken log2 fold change” value was found to be 0.784.

Regarding RRIRLRPPRLPRPRPRPHRWPRP, the “shrunken log2 fold change” value is -0.0172.

Regarding RRIRFRPPRLPRPRPRPKHLPRP, the “shrunken log2 fold change” value was -0.0736.

On to RRIRPRPPRLPRPRPRPVQTPRP, for which the “shrunken log2 fold change” value is 0.00686.

Consider RRIRGRPPRLPRPRPRPEDFPRP, for which the “shrunken log2 fold change” value was determined as 0.149.

RRIRKRPPRLPRPRPRPCMGPRP: the “shrunken log2 fold change” value was determined as 0.045.

In the case of RRIRNRPPRLPRPRPRPVYDPRP, the “shrunken log2 fold change” value was -0.386.

With RRIRHRPPRLPRPRPRPEKPPRP, the “shrunken log2 fold change” value is -0.01.

For RRIRRRPPRLPRPRPRPRCLPRP, the “shrunken log2 fold change” value stood at 0.219.

RRIRCRPPRLPRPRPRPKDTPRP: the “shrunken log2 fold change” value amounted to 0.382.

For the sequence RRIRMRPPRLPRPRPRPHMGPRP, the “shrunken log2 fold change” value is -0.0941.

For the sequence RRIRSRPPRLPRPRPRPDAHPRP, the “shrunken log2 fold change” value was 0.0464.

On to RRIRNRPPRLPRPRPRPDQIPRP, for which the “shrunken log2 fold change” value is -0.0823.

Consider RRIRMRPPRLPRPRPRPHGKPRP, for which the “shrunken log2 fold change” value was -0.0884.

In the case of RRIRSRPPRLPRPRPRPQWWPRP, the “shrunken log2 fold change” value was found to be 0.0138.

In the case of RRIRYRPPRLPRPRPRPLRIPRP, the “shrunken log2 fold change” value is -0.36.

Consider RRIRQRPPRLPRPRPRPRANPRP, for which the “shrunken log2 fold change” value stood at 0.367.

With RRIRRRPPRLPRPRPRPFKQPRP, the “shrunken log2 fold change” value was -0.182.

Regarding RRIRWRPPRLPRPRPRPNISPRP, the “shrunken log2 fold change” value was -0.279.

As for RRIRIRPPRLPRPRPRPFKEPRP, the “shrunken log2 fold change” value was -0.263.

On to RRIRYRPPRLPRPRPRPIQAPRP, for which the “shrunken log2 fold change” value was determined as 0.107.

As to RRIRQRPPRLPRPRPRPQIWPRP, the “shrunken log2 fold change” value came to 0.0984.

For the sequence RRIRCRPPRLPRPRPRPNQEPRP, the “shrunken log2 fold change” value was -0.0562.

Turning to RRIRIRPPRLPRPRPRPKNKPRP, the “shrunken log2 fold change” value is -0.68.

Regarding RRIRYRPPRLPRPRPRPWYGPRP, the “shrunken log2 fold change” value was -0.258.

Turning to RRIRRRPPRLPRPRPRPAHGPRP, the “shrunken log2 fold change” value stood at 0.279.

As to RRIRGRPPRLPRPRPRPDQSPRP, the “shrunken log2 fold change” value was 0.777.

For the sequence RRIRCRPPRLPRPRPRPYQRPRP, the “shrunken log2 fold change” value amounted to 0.055.

Take RRIRWRPPRLPRPRPRPPARPRP: the “shrunken log2 fold change” value was determined as 0.726.

For the sequence RRIRSRPPRLPRPRPRPRMIPRP, the “shrunken log2 fold change” value is -0.086.

On to RRIRKRPPRLPRPRPRPVMLPRP, for which the “shrunken log2 fold change” value was 0.109.

With RRIRERPPRLPRPRPRPQTEPRP, the “shrunken log2 fold change” value was -0.0317.

As for RRIRFRPPRLPRPRPRPIEEPRP, the “shrunken log2 fold change” value stood at 0.0565.

Turning to RRIRWRPPRLPRPRPRPDGYPRP, the “shrunken log2 fold change” value was -0.0244.

Take RRIRFRPPRLPRPRPRPSGDPRP: the “shrunken log2 fold change” value was -0.202.

RRIRGRPPRLPRPRPRPFVSPRP: the “shrunken log2 fold change” value is -0.166.

As to RRIRYRPPRLPRPRPRPEFVPRP, the “shrunken log2 fold change” value is -0.327.

Consider RRIRCRPPRLPRPRPRPNNRPRP, for which the “shrunken log2 fold change” value was -0.738.

As to RRIRRRPPRLPRPRPRPRLMPRP, the “shrunken log2 fold change” value came to 0.316.

In the case of RRIRTRPPRLPRPRPRPYLPPRP, the “shrunken log2 fold change” value was -0.513.

Take RRIRPRPPRLPRPRPRPCESPRP: the “shrunken log2 fold change” value amounted to 0.183.

Regarding RRIRSRPPRLPRPRPRPGMDPRP, the “shrunken log2 fold change” value worked out at 0.0734.

RRIRWRPPRLPRPRPRPRFEPRP: the “shrunken log2 fold change” value was 0.225.

Turning to RRIRCRPPRLPRPRPRPMQPPRP, the “shrunken log2 fold change” value turned out to be 0.462.

Consider RRIRFRPPRLPRPRPRPFPIPRP, for which the “shrunken log2 fold change” value was -0.184.

Consider RRIRPRPPRLPRPRPRPVDWPRP, for which the “shrunken log2 fold change” value came to 0.656.

Regarding RRIRRRPPRLPRPRPRPHNNPRP, the “shrunken log2 fold change” value is -0.508.

With RRIRTRPPRLPRPRPRPYEEPRP, the “shrunken log2 fold change” value was -0.573.

As for RRIRTRPPRLPRPRPRPGSRPRP, the “shrunken log2 fold change” value came to 0.365.

On to RRIRVRPPRLPRPRPRPRQLPRP, for which the “shrunken log2 fold change” value was determined as 0.276.

As for RRIRTRPPRLPRPRPRPRCDPRP, the “shrunken log2 fold change” value was 0.13.

Consider RRIRKRPPRLPRPRPRPSPWPRP, for which the “shrunken log2 fold change” value is 0.141.

RRIRVRPPRLPRPRPRPHAYPRP: the “shrunken log2 fold change” value was -0.473.

Consider RRIRIRPPRLPRPRPRPCMEPRP, for which the “shrunken log2 fold change” value is -0.799.

On to RRIRKRPPRLPRPRPRPWIFPRP, for which the “shrunken log2 fold change” value was found to be 0.287.

With RRIRMRPPRLPRPRPRPPVGPRP, the “shrunken log2 fold change” value was determined as 1.06.

On to RRIRMRPPRLPRPRPRPKCKPRP, for which the “shrunken log2 fold change” value was 0.365.

Turning to RRIRNRPPRLPRPRPRPSVTPRP, the “shrunken log2 fold change” value was found to be 0.0789.

Take RRIRARPPRLPRPRPRPDPDPRP: the “shrunken log2 fold change” value worked out at 1.3.

As to RRIRERPPRLPRPRPRPQQGPRP, the “shrunken log2 fold change” value is -0.219.

With RRIRIRPPRLPRPRPRPDSTPRP, the “shrunken log2 fold change” value is 0.00478.

On to RRIRARPPRLPRPRPRPLFAPRP, for which the “shrunken log2 fold change” value came out at 0.647.

On to RRIRFRPPRLPRPRPRPPITPRP, for which the “shrunken log2 fold change” value was -0.389.

In the case of RRIRHRPPRLPRPRPRPILKPRP, the “shrunken log2 fold change” value is -0.348.

Regarding RRIRMRPPRLPRPRPRPHPHPRP, the “shrunken log2 fold change” value was determined as 0.187.

As for RRIRDRPPRLPRPRPRPFNMPRP, the “shrunken log2 fold change” value was -0.186.

With RRIRIRPPRLPRPRPRPYWNPRP, the “shrunken log2 fold change” value was -0.694.

Consider RRIRERPPRLPRPRPRPHTRPRP, for which the “shrunken log2 fold change” value is -0.0821.

For the sequence RRIRWRPPRLPRPRPRPAMSPRP, the “shrunken log2 fold change” value was determined as 0.403.

Regarding RRIRQRPPRLPRPRPRPAVQPRP, the “shrunken log2 fold change” value turned out to be 0.013.

RRIRYRPPRLPRPRPRPTNHPRP: the “shrunken log2 fold change” value was -0.709.

Regarding RRIRYRPPRLPRPRPRPLHDPRP, the “shrunken log2 fold change” value is -0.74.

On to RRIRARPPRLPRPRPRPFHRPRP, for which the “shrunken log2 fold change” value is 0.206.

For RRIRKRPPRLPRPRPRPWTEPRP, the “shrunken log2 fold change” value is -0.172.

Take RRIRMRPPRLPRPRPRPHLNPRP: the “shrunken log2 fold change” value was 0.176.

Consider RRIRVRPPRLPRPRPRPDFFPRP, for which the “shrunken log2 fold change” value is -0.0229.

Take RRIRTRPPRLPRPRPRPYAYPRP: the “shrunken log2 fold change” value is -0.0309.

Consider RRIRFRPPRLPRPRPRPMLTPRP, for which the “shrunken log2 fold change” value was -0.351.

For the sequence RRIRSRPPRLPRPRPRPCHIPRP, the “shrunken log2 fold change” value is -0.872.

As to RRIRLRPPRLPRPRPRPNWTPRP, the “shrunken log2 fold change” value was -0.084.

In the case of RRIRRRPPRLPRPRPRPSPTPRP, the “shrunken log2 fold change” value came out at 0.598.

With RRIRCRPPRLPRPRPRPNPNPRP, the “shrunken log2 fold change” value was -0.135.

For the sequence RRIRHRPPRLPRPRPRPKYMPRP, the “shrunken log2 fold change” value is -0.746.

Regarding RRIRGRPPRLPRPRPRPQESPRP, the “shrunken log2 fold change” value is -0.0432.

Take RRIRERPPRLPRPRPRPFTHPRP: the “shrunken log2 fold change” value is -0.0134.

For RRIRQRPPRLPRPRPRPFREPRP, the “shrunken log2 fold change” value is -0.0101.

As for RRIRWRPPRLPRPRPRPGHSPRP, the “shrunken log2 fold change” value came out at 0.0135.

In the case of RRIRLRPPRLPRPRPRPMITPRP, the “shrunken log2 fold change” value was -0.07.

As for RRIRKRPPRLPRPRPRPCHSPRP, the “shrunken log2 fold change” value was -0.0177.

RRIRSRPPRLPRPRPRPCTYPRP: the “shrunken log2 fold change” value was -0.454.

Regarding RRIRPRPPRLPRPRPRPIGIPRP, the “shrunken log2 fold change” value is 0.208.

Consider RRIRTRPPRLPRPRPRPGMAPRP, for which the “shrunken log2 fold change” value was -0.0805.

For RRIRRRPPRLPRPRPRPHYNPRP, the “shrunken log2 fold change” value was -0.202.

Take RRIRCRPPRLPRPRPRPPFVPRP: the “shrunken log2 fold change” value was 0.145.

Take RRIRCRPPRLPRPRPRPQPSPRP: the “shrunken log2 fold change” value came to 0.228.
